Laboratory results reported in US20240218054A1 (MABLOC, published 2024).

B1: ADI-42227 (antibody, V domains shown)
VH: EVQLLESGAEVKEPGSSVKVSCKPSGGTFSSYVISWVRQAPGQGLEWMGGIIPIFGTPNYAQKFQGRVTITADDSTSTAHMELSSLTSDDTAVYYCARETYYYGSGSVPVHDWGQGTLVTVSS
VL: EIVMTQSPSSLSASVGDRVTITCRASQGIRNDLGWYQQKPGKAPKRLIYAASSLQSGVPSRFSGSGSGREFTLTISSLQPEDFATYYCLQHNTYPWTFGQGTKVEIK
notes: full-length IgG
B2: ADI-49041 (antibody, V domains shown)
VH: EVQLVESGGGLVKPGGSLRLSCAASGFTFSHAWMTWVRQAPGKGLEWVGRIKSETDGGTANYAAPVKGRFTISRDDSKNTVYLQMVSLKTEDTAVYYCATAGIFGVVIMKGFDHWGQGTTVTVSS
VL: DIVMTQSPSTLSASVGDRVVITCRASQSISNWLAWYQQKSGKAPKLLIYKASRLESGVPSTFSGSGSGTEFTLTISSLQADDFASYYCQQYNDYPWTFGQGTKVEIK
notes: full-length IgG
B3: ADI-49037 (antibody, V domains shown)
VH: EVQLVESGGGVVQPGRSLRLSCAASGFTLSSYVMHWVRQAPGKGLEWVAVISSDGTNKYYADSVKGRFTISRDSSKNTLYLQMNSLRPEDSAVYYCARGQPDYWGQGTLVTVSS
VL: EIVLTQSPATLSLSPGERATLSCRASQSVSNYFAWYQQKPGQAPRLLIYGASNRATGVPARFSGSGSGTDFTLTISSLEPEDFAVYYCQQRSNWPYTFGQGTKVEIK
notes: full-length IgG
B4: ADI-42195 (antibody, V domains shown)
VH: EVQLLESGGGMVQPGRSLRLSCAASGFTFDDYDMHWVRQGPGKGLEWVSGISWNSGGRGYADSVKGRFTISRDNAKNSLYLQMNSLRVEDTALYYCVKDYCSGGRCYSFDYWGQGTLVTVSS
VL: DIQMTQSPSSLSASVGDRVTITCQASQDISNYLNWYQQKPGKAPKLLIYDVSKLKTGVPPRFSGSGSGTDFTFTISSLQPEDIATYYCQQWGTFGQGTKVDIK
notes: full-length IgG; also called Antibody Number 116
B5: ADI-50197 (antibody, V domains shown)
VH: EVQLVESGGGVVQPGRSLRLSCAASGFTFSSYGMHWVRQAPGKGPEWVAVISEDGNKDHYVDSVKGRFSIYRDNSKSTVFLRMTSLRAEDTAVYYCAKDLTPYFYDSGAFDHWGQGTLVTVSS
VL: QSVLTQPPSVSGAPGQRVTISCTGNSSNIGAGYEVHWYQQLPGTAPKLLIYGNNNRPSGVPDRFSGSKSGASGSLAVTGLRAEDEADYYCHSYDSNMSGSVFGGGTKVTVL
notes: full-length IgG; also called Antibody Number 120
B6: ADI-50220 (antibody, V domains shown)
VH: EVQLVESGGGVVQPGRSLRLSCAASGFIFSSNSMHWVRQAPGKGLKWVAIISNDGRNKFYADAVKGRFTVSRDNSKNTLYLQMNSLRPEDTAVYYCARGYDSSGYWGFGDNWGQGTLVTVSS
VL: DIQVTQSPSTLSASVGDRVSITCRASQTISSWLAWYQQKPGKAPKLLMYKASNLQSGVPSRFTGSGSGTEFTLTISSLQPDDFATYYCQQYYSYPYTFGPGTKVDIK
notes: full-length IgG; also called Antibody Number 110
B7: ADI-48969 (antibody, V domains shown)
VH: QVTLKESGGALVKPAGSLTLSCAASGFTFGDYYMSWIRQAPGKGLEWISYISSSGSSIYYTDSVRGRFTISRDNARNSLYLQMNSLRVEDTAVYYCAREFSSRPFDLWGQGTLVTVSS
VL: QSVLTQPRSVSGSPGQSVTISCTGTSSDVGAYNFVSWYQQYPGKAPKLMIYDVNKRPSGVPDRFSGSKSGNTASLTISGLQAEDEADYHCCSYAGTYTSNYVFGSGTKVTVL
notes: full-length IgG; also called Antibody Number 12
B8: ADI-46739 (antibody, V domains shown)
VH: EVQLVESGPGLVKPSGTLSLTCAVSGGSISSDNWWSWVRQAPGKGLEWIGEIYHTGSTSYNPSLKSRVTISLDKSKNHFSLKLNSLTAADTAVYYCAGKKWELLGFRFDPWGQGTLVTVSS
VL: NFMLTQPPSVSAAPGQKVTISCSGSNSNIGNNFVSWYQQLPGTAPKLLIYDNNERPSGIPDRFSGSKSVTSATLGITGLQTGDEADYYCGTWDNSLGMVVFGGGTKLTVL
notes: full-length IgG; also called Antibody Number 124
B9: ADI-49032 (antibody, V domains shown)
VH: EVQLVQSGGGLVQPGGSLRLSCVGSGLTLSSSAMSWVRQAPGKGLECVSGITGSGSDSSYAASVKGRFTISRDNSKNTVYLQMNSLRAEDTAVYYCAKDLTHRLGSIFGKLTFDAFDIWGPGTMVTVSS
VL: DIRLTQSPSTLSASVGDRVTITCRASQSISGWLAWYQQKPGKAPKLLIYKASILESGVPSRFSGSQSGTEFTLTISSLQPDDFATYYCQQYNNFWTFGQGTKLEIK
notes: full-length IgG; also called Antibody Number 119
B10: ADI-48894 (antibody, V domains shown)
VH: EVQLVESGGGLVQPGGSLRLSCAVSGFTFSDHYMDWVRQAPGKGLEWVGRSRNKVNSYITEYAASVKGRFSISRDDSKNSLYLQMNSLKIEDTAVYYCARVFGGPTDYWGQGTLVTVSS
VL: EIVLTQSPSSLSASVGDRVTITCRASQGISNYLAWYQQKPGKAPKLLIYAASTLQSGVPSRFSGSGSGTDFILTISSLQPEDVATYYCQKYYSAPLITFGPGTKVEIK
notes: full-length IgG
B11: ADI-49139 (antibody, V domains shown)
VH: EVQLVETGSGLVRPSGTLSLTCAVSGDSISSNNWWSWVRQPPGKGLEWIGEIYHSGSTSYNPSLKSRVTISIDKSNNHFSLKLTSVTAADTAVYYCAKDMWAGTTTNWFGPWGQGTLVTVSS
VL: QSVLTQPPSVSAAPGQKVTISCSGSSSNIGYSHVSWYQQLPGTAPKVLIYDNDKRPSGIPDRFSGSKSGTSATLGITGLQTGDEADYYCGTWDTSLGVVFGGGTKLTVL
notes: full-length IgG; also called Antibody Number 11
B12: ADI-42226 (antibody, V domains shown)
VH: EVQLLESGGGLVQPGGSLRLSCAASGFIFSDHYMDWVRQAPGKGLEWVGRIRNKPNSYTTDYAAYVKGRFSISRDDSKNSLFLQMNSLKTEDTAVYYCARVVNGLDVWGQGTTVTVSS
VL: SYELTQPPSVSVSPGQTARITCSGDALPKQYAYWYQQKPGQAPVLVIYKDTERPSGIPERFSGSSSGTTVTLTISGVQAEDEADYYCQSADSSVADSSVVFGGGTKLTVL
notes: full-length IgG
B13: ADI-42810 (antibody, V domains shown)
VH: QVQLVESGAEEKKPGASVKVSCKASGYTFTSYAMHWVRQAPGQRLEWMGWINAGNGNTKYSQKFQGRVTITRDTSASTAYMELSSLRSEDTAVYYCARQWLGHFDYWGQGTLVTVSS
VL: QSALTQPASVSGSPGQSITISCTGTSSDVGGYNYVSWYQQHPGKAPKLMIYEVSNRPSGVSNRFSGSKSGNTASLTISGLQAEDEADYYCSSYTSSSTYVFGTGTKVTVL
notes: full-length IgG
B14: ADI-42141 (antibody, V domains shown)
VH: QVQLVQSGGGLVQPGGSLRLSCAASGFTFSDHYMDWVRQAPGKGLEWVGRTRNKANSYTTKYAASVKGRFTISRDDSKNSLYLQMNSLKTEDTAVYYCARVEGGAWGAFDIWGQGTTVTVSS
VL: SYVLTQPPSVSVSPGQTARITCSGDALPKQYGYWYQQKPGQAPVLVIYKDSERPSGIPERFSGSSSGTTVTLTISGVQAEDEADYYCQSADRSGTVVFGGGTKLTVL
notes: full-length IgG; also called Antibody Number 111
B15: ADI-45074 (antibody, V domains shown)
VH: QVQLQQWGAGLLKPSETLSLTCAVYGGSFSGYYWSWIRQPPGKGLEWIGEINHRGSTDYNPSLKSRVTMSVDTSKNQFSLRLSSVTAADTALYYCARGRLAWGLRGQKSPNFFAYWGQGATVTVSS
VL: DIQMTQSPDSLAVSLGERATINCKSSQSVFYSSNSQNYLAWYQQKPGQPPKLLIYWASTRESGVPDRFSGSGSATDFSLTISSLQAEDVAVYYCQQFHSPPWTFGQGTKLEIK
notes: full-length IgG
B16: ADI-42172 (antibody, V domains shown)
VH: QVQLVESGGGVVQPGRSLRLSCAASGFTFSSYGMHWVRQAPGKGLEWVAVMSYDGSNKYYADSLKGRFTISRDNSKNTLYLQMNSLRAEDTAVYFCAKAYDSSAYYYLDYWGQGTLVTVSS
VL: EIVLTQSPSTLSASVGDRVTITCRASQSISDWLAWYQQKPGKAPNLLIYRASSLESGVPSRFSGSGSGTEFTLTISSLQPDDFATYYCQQYNRYPYTFGQGTKVEIK
notes: full-length IgG; also called Antibody Number 117
B17: ADI-42178 (antibody, V domains shown)
VH: EVQLVESGGGVIQPGRSLRLSCAASGFNFSSYGMHWVRQAPGKGLEWVAVISYDGSNKYYADSVKGRFTISRDNSKNTLYLQMNSLRAEDTAVHYCAKAYDSRGYYYLDYWGQGTLVTVSS
VL: DIQLTQSPSTLSASVGDRVTITCRASQSISDWLAWFQQKPGKAPKLLIYRASGLETGVPSRFSGSGSGTEFTLTISSLQPDDFATYYCQQYNRYSYTFGQGTKVEIK
notes: full-length IgG
B18: ADI-50534 (antibody, V domains shown)
VH: EVQLQESGPGLVKPSETLSLTCTVSGGSISSSSYYWGWIRQPPGKGLEWIGSIYYSGSTYYNPSLKSRVTISVDTSKNQFSLKLSSVTAADTAVYYCARHSSGSYYLAGYYFDYWGQGTLVTVSS
VL: NFMLTQPHSVSESPGKTVTISCTRSSGSIASNYVQWYQQRPGSAPTTVIYEDNQRPSGVPDRFSGSIDSSSNSASLTISGLKTEDEADYYCQSYDSSNWVFGGGTKLTVL
notes: full-length IgG
B19: ADI-42216 (antibody, V domains shown)
VH: QVTLKESGPVLVKPTETLTLTCTVSGFSLSNTKMGVTWIRQPPGKALEWLAHIFSNDEKSCNTSLKSRLTISKDTSKSQVVLTMTNMDPVDTATYYCARLWFTEYPGAFDIWGQGTMVTVSS
VL: QAVVTQPPSASGSPGQSVTISCTGTSSDVGGYNYVSWYQQHPGKAPKLMVYEVTKRPSGVPDRFSGSKSGNAASLTVSGLQAEDEAEYYCSSYAGSNALVFSGGTKLTVL
notes: full-length IgG; also called Antibody Number 112
B20: ADI-49140 (antibody, V domains shown)
VH: EVQLVESGGGLVQPGGSLRLSCAASGFTFSDHYMDWVRQAPGRGLEWVGRSRNKVNSYTTDYAASVKGRFTISRDDSKNSLFLRMNSLKTEDTAVYYCARLTDSGYDDWGLGTLVTVSS
VL: QPELTQPPSVSVSPGQTARITCSGDALSKQYAYWYQQKPGQAPVVVIYKDSERPSGIPERFSGSRSGTTVTLTISGVQAEDEADYYCHSPDSHVVFGGGTKLTVL
notes: full-length IgG
B21: ADI-46741 (antibody, V domains shown)
VH: EVQLVESGPGLVKPSETLSLTCTVSGGSISSYYWSWIRQPPGKGLEWIGYIYYSGSTNYNPSLKSRVTISVDTSKNQFSLKLSSVTAADTAVYYCARETCSGGSCYYRVGSAFDIWGQGTTVTVSS
VL: SYELIQLPSASVAPGKTARITCGGNNIGSKSVHWYQQKPGQAPVLVVYDDSDRPSGIPERFSGSNSGNTATLTISRVEAGDEADYYCQVWDSSSDHEVFGGGTKLTVL
notes: full-length IgG; also called Antibody Number 115
B22: ADI-45126 (antibody, V domains shown)
VH: EVQLVESGGGLVQPGGSLRLSCAASGFTFSDHYMDWVRQAPGKGLEWVGRSTNKPNSYTTTYAASVRGRFTISRDESKNSLYLQMNSLKSDDTAVYYCVTTTVILFDYWGQGTLVTVSS
VL: SYELTQPPSVSVSPGQTARITCSGDALPKKYVYWFQQKSGQAPVLVIYEDRRGPSGIPERFSGSTSGTMATLTIRGAQVEDEADYFCYSTDSSGLLGVFGGGTKLTVL
notes: full-length IgG; also called Antibody Number 106

These binders were tested against T1, recombinant YFV E protein (soluble E, sE; YFV Asibi strain) (Yellow fever virus, Asibi strain, UniProt Q6DV88 286-678) (assay: BLI monovalent (IgG on tip)).
T1 construct: also called YFV E antigen; YFV E monomer
T1 sequence (Q6DV88 286-678): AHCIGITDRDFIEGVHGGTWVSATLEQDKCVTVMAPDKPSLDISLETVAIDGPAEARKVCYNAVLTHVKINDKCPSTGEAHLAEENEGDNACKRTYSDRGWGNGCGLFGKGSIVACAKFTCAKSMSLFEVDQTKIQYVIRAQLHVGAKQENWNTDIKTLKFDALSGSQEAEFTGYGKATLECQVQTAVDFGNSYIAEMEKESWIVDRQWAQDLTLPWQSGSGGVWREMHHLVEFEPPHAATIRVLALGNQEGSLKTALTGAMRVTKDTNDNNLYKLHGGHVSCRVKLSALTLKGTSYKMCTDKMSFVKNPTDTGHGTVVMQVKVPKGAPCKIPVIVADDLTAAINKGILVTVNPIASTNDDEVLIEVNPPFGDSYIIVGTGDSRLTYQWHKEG

Row | Binder | Kd [nM]
1 | B1 | 0.658
2 | B2 | 0.997
3 | B3 | 3.53
4 | B4 | 1.86
5 | B5 | > 100
6 | B6 | 3.64
7 | B7 | 5.86
8 | B8 | > 100
9 | B9 | 0.486
10 | B10 | 95.6
11 | B11 | 3.45
12 | B12 | 0.843
13 | B13 | > 100
14 | B14 | 1.75
15 | B15 | 0.699
16 | B16 | 129
17 | B17 | 34.4
18 | B18 | > 100
19 | B19 | 11.4
20 | B20 | 1.04
21 | B21 | > 100
22 | B22 | 1.68
